Test system: CC(=O)Oc1ccc([N+](=O)[O-])cc1
Assay: purified protein
Format: biochemical, Marinobacter sp.
Conditions: PBS pH 7.0, 20 °C, 0.1-2.5 mM substrate

Substance | Km | kcat
Ple628 (Marinobacter sp.) | 1800 µM | 4.498 s⁻¹
Ple629 (Marinobacter sp.) | 2100 µM | 4.742 s⁻¹
